Reference: the supplement of paper PMC10567573

B1: RAD51 (parent)
chain: RFLRMLLRLADEFGVAVVITNQVV
B2: TBX6 (parent)
chain: AFLELPHGSGGSGYPAAPPAVPFA

Variants of: B1
Assay: protein stability index of a GFP-peptide fusion (GPS, HEK-293T) (PSI 1-6); higher = more stable
Details: c terminus: a fixed tail appended
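Further: lentivirally expressed fusions sorted by FACS into six bins by GFP to DsRed ratio, PSI derived from sequencing read proportions per bin multiplied by bin number.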

Variant	protein stability index
R1C	2.23
R1A	1.62

Variants of: B2
Assay: as above
Details: c terminus: a fixed tail appended

Variant	protein stability index
S12N	2.62
S12K	2.17
S12V	2.55
S12T	2.4
S12E	2.74
S12R	2.27
S12F	1.91
S12P	2.08
S12H	2.22
S12W	2.55
S12G	2.31
S12L	2.18
S12Y	1.63
S12Q	2.29
L5M	2.69
L5V	2.59
L5I	2.43
L5T	2.61
L5Y	2.39
L5D	2.81
L5E	2.83
L5R	2.71
L5F	2.29
L5N	2.74

Variant	protein stability index
L5P	3.17
L5C	2.51
L5W	2.32
L5Q	2.83
V21R	2.64
V21Y	2.12
V21L	2.58
V21N	2.64
V21W	2.07
V21S	2.59
V21K	3.23
V21F	1.97
V21D	3.46
V21G	3.31
P6C	1.34
P6Q	2
P6L	2.4
P6I	2.85
P6F	2.09
P6S	2.47
P6Y	2.36
P6E	2.62
P6G	1.62
P6H	1.95

Variant	protein stability index
P6M	2.29
P6T	2.21
P6N	2.14
P6K	2.37
P6D	2.31
L3V	2.93
L3K	3.45
L3H	3.19
L3M	2.41
L3G	3.43
L3R	3.47
L3I	2.28
L3T	3.23
L3D	3.96
L3Q	3.43
L3S	2.87
L3N	3.57
L3Y	2.08
L3E	3.66
L3F	2.68
L3P	4.08
F23K	3.38
F23S	3.21
F23L	2.35

Variant	protein stability index
F23C	3.36
F23T	3
F23G	3.72
F23A	3.48
F23N	3.76
F23E	3.56
F23I	2.52
F23V	2.89
F23R	3.3
F23D	4.19
G11F	2.19
G11I	2.23
G11D	2.89
G11K	2.07
G11W	2.32
G11M	2.01
G11V	2.12
G11E	2.77
G11Q	2.2
G11A	2.5
G11L	1.93
G11P	2.28
G11S	2.7
G11N	2.07

Variant	protein stability index
P19D	2.56
P19E	2.78
P19R	2.17
P19Q	2.47
P19V	2.13
P19Y	1.48
P19M	2.19
P19T	2.37
P19S	2.13
P19H	2.23
P19W	2.83
P19N	2.06
P19F	1.59
P15L	1.94
P15H	1.93
P15T	2.56
P15D	2.81
P15R	1.88
P15K	2.15
P15E	3.03
P15V	2.08
P15A	2.27
P15G	2.21
P15I	2.01

Variant	protein stability index
P15C	1.8
P22V	2.16
P22K	2.19
P22Y	2.02
P22H	2.46
P22N	1.89
P22C	2.1
P22W	2.25
P22Q	2.52
P22L	1.4
P22R	2.3
P22S	2.18
P22G	2.42
P22D	3.29
P22I	1.73
P22A	2.14
A16C	1.61
A16W	1.94
A16Q	2.77
A16D	2.09
A16Y	2.46
A16K	2.99
A16R	2.29
A16I	2.24

Variant	protein stability index
A16F	2.18
A16E	3.49
A16M	2.17
A16V	2.19
A16H	2.21
A16G	2.09
A16S	2.22
A17F	1.99
A17E	2.97
A17M	2.17
A17R	2.37
A17V	2.62
A17Y	2.36
A17K	2.4
A17C	2.61
A17G	2.03
A17L	2.57
A17Q	2.54
A17I	2.65
A17D	2.85
A17T	2.58
